Measurements from publication PMC10754010, “CRISPR/Cas9‐based genome editing of 14 lipid metabolic genes reveals a sporopollenin metabolon ZmPKSB‐ZmTKPR1‐1/‐2 required for pollen exine formation in maize”.

Target: T1, ZmMYB84 (MBP fusion) (Zea mays, UniProt B4FQD3 1-356)
T1 sequence: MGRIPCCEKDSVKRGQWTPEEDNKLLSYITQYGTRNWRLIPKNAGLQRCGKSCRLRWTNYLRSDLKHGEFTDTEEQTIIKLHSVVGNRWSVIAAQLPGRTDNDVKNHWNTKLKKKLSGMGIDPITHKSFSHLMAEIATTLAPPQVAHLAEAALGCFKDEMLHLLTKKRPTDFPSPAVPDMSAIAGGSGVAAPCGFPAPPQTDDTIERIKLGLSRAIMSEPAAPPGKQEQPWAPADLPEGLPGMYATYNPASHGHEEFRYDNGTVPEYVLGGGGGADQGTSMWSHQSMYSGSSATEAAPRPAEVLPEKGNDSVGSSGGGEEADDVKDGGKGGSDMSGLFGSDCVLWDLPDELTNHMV
Experiment: EMSA; EMSA conditions not stated (as in Hou et al., 2023)
Settings: protein: recombinant; tags: MBP (ZmMYB84 fused to the C-terminus of MBP; vector pMCSG7); label: biotin; 5' overhang 1 nt on each strand (so in the source)

B1: ZmTKPR1-2bio promoter probe (dsDNA)
DNA 1: ATTGCAAATCTACCCCCAACCAACCCAGCTTTGTATCTG
DNA 2: GCAGATACAAAGCTGGGTTGGTTGGGGGTAGATTTGCAA
- binding result: binds

B2: ZmTKPR1-1bio promoter probe (dsDNA)
DNA 1: TAGGAAGGAAGAAGGTTCCTGCAATGCATGTAAGGTTGGTAATTCATGCCTT
DNA 2: AAAGGCATGAATTACCAACCTTACATGCATTGCAGGAACCTTCTTCCTTCCT
- binding result: binds
